As usually defined, the Kd is a measure of binding affinity in units of concentration. A higher Kd goes with a looser complex.

One molecule from article PMC3678163 can be followed below.

The assay has as its target poly-SUMO2 chains (3–8) (UniProt P61956). The assay is described as follows: SPR. A general note: Surface plasmon resonance follows binding to a sensor surface in real time, without labels.
UniProt P61956, sequence (P61956 whole entry): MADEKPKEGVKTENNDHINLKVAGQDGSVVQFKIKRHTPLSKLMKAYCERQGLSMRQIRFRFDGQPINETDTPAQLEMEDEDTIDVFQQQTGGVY

B1: RNF111(282–411) fragment, wild type (domain or fragment)
chain: SENHQNNPAVPSGSIDEDVVVIEASSTPQVTANEEINVTSTDSEVEIVTVGESYRSRSTLGHSRSHWSQGSSSHASRPQEPRNRSRISTVIQPLRQNAAEVVDLTVDEDEPTVVPTTSARMESQATSASI
On to B1, for which the dissociation constant Kd was 15 µM.
